Literature values in paper PMC9346034.

Legend:
Hsp70 (Homo sapiens) = Hsp70 (Homo sapiens) (UniProt P0DMV8)
DnaK (Escherichia coli) = DnaK (Escherichia coli) (UniProt P0A6Y8)
DnaK (Escherichia coli), sequence (P0A6Y8 2-638): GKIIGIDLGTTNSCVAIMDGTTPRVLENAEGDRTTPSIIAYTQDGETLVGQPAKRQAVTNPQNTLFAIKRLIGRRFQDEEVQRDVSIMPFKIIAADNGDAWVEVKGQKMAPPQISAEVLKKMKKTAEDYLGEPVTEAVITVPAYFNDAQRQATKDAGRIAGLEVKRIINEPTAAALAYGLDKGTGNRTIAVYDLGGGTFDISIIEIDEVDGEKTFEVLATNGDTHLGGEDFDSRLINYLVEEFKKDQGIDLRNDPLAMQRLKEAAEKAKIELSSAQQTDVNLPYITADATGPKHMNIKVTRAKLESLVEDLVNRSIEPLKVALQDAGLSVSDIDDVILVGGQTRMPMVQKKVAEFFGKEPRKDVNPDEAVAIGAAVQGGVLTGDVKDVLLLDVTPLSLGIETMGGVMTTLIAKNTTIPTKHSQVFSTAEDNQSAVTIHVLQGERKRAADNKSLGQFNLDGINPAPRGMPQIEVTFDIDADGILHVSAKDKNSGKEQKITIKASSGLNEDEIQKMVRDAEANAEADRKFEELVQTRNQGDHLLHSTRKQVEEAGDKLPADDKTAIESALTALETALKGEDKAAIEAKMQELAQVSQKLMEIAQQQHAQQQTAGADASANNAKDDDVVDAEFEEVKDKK

Hsp70 (Homo sapiens), sequence (P0DMV8 2-641): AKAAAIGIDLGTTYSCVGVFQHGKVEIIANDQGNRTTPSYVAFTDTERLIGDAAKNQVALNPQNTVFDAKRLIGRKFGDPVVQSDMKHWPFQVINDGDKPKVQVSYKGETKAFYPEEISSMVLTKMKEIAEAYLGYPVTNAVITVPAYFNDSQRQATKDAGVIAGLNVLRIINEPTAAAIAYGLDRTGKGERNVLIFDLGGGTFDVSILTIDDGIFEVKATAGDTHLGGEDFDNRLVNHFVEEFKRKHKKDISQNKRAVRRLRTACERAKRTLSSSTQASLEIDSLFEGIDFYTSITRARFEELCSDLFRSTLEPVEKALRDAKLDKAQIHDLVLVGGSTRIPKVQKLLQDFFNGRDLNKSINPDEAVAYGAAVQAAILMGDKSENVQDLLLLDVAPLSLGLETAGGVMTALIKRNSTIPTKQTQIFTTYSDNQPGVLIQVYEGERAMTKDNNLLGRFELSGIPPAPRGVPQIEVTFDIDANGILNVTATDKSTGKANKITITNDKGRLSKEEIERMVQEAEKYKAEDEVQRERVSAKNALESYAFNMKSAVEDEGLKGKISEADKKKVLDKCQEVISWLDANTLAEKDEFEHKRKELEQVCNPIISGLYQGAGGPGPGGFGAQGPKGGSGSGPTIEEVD
Bag3-ΔBag ΔBag, sequence (O95817 2-420, stated change not applied): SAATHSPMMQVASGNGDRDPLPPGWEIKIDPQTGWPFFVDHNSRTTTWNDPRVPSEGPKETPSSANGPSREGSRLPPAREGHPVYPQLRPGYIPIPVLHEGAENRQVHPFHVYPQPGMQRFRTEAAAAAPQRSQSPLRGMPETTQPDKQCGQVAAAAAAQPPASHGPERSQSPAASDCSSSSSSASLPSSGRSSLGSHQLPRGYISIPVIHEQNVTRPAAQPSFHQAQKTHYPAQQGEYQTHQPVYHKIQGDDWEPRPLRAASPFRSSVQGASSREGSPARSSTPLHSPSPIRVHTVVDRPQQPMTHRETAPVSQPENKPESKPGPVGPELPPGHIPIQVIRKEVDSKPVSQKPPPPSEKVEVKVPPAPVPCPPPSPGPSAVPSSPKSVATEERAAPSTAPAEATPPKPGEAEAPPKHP
Bag3-ΔBag ΔBag, sequence (O95817 499-575, stated change not applied): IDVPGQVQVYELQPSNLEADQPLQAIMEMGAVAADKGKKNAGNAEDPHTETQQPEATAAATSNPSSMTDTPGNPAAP
DnaJ, sequence (P08622 2-376): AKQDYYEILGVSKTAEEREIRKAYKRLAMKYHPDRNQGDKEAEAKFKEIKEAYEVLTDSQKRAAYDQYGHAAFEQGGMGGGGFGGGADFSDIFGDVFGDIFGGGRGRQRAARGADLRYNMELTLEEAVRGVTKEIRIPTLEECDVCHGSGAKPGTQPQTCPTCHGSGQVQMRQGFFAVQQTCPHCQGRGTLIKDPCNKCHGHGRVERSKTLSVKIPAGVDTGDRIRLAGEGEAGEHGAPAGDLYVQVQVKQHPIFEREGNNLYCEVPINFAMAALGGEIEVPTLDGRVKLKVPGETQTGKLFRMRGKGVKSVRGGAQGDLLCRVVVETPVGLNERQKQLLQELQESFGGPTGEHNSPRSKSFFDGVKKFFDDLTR

In the case of Bag3-ΔBag ΔBag (from UniProt O95817), the Kd (Hsp70 (Homo sapiens)) is given as 10 µM.

In the case of DnaJ (from UniProt P08622), the Kd (DnaK (Escherichia coli)) is given as 3.6 µM.
